Source: patent publication US20200291135A1 (INSPIRNA, published 2020)

Columns and labels:
[1] = target: T1, human MERTK expressed on cells (SKMEL5 melanoma cells; in vitro differentiated M2 macrophages) (human, UniProt Q12866 21-999); assay: flow cytometry, APC-labeled z10 on MERTK-expressing SKMEL5 melanoma cells
T1 construct: Endogenous MERTK of human cells; also called surface MERTK
T1 sequence: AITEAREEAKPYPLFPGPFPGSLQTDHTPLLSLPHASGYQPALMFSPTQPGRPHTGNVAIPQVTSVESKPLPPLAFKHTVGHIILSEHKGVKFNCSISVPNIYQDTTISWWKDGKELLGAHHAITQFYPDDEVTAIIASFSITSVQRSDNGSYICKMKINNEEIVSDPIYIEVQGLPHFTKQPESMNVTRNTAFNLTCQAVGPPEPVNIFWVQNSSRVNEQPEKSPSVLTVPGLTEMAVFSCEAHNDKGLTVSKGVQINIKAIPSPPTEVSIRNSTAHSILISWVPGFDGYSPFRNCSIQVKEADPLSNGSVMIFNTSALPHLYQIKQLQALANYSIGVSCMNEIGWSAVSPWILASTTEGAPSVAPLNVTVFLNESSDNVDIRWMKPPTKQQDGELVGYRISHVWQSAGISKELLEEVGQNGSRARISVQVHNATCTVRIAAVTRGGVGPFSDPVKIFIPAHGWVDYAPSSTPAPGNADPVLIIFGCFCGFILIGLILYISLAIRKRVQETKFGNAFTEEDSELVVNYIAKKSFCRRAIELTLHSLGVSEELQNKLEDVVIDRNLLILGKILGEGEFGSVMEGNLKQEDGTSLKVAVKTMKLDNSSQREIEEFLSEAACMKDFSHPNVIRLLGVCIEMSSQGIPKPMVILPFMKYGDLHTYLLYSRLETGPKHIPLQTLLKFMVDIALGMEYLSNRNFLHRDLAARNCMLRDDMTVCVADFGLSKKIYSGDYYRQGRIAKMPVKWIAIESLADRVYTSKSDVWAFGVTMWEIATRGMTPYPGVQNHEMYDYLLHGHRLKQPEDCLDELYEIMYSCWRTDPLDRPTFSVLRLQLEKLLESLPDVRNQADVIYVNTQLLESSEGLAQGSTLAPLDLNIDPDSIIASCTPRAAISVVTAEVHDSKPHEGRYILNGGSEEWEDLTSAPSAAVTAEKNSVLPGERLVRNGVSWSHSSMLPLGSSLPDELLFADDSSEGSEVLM
Description: SKMEL5 cells were harvested with trypsin, washed twice with PBS and strained through a 70 µm filter. 50,000 cells were resuspended in 60 μL FACS buffer (2% BSA, 10 mM EDTA, 25 mM HEPES, 0.1% sodium azide in Ca/Mg-free PBS) containing 10% human AB serum (Sigma, H4522). […] The APC signals from live single cells were analyzed in FlowJo and the MFIs were plotted with GraphPad Prism. Single color control samples were used to create a compensation matrix.

[2] = target: T2, rhMer/Fc Chimera (recombinant human MERTK extracellular domain conjugated to an IgG Fc domain) (human, UniProt Q12866 21-505); assay: SPR, avidity format: rhMer/Fc Chimera immobilised on CM5 chip, antibody as analyte, 1:1 fit
T2 construct: extracellular domain; also called hMER recombinant protein; Mer-Fc conjugate; not shown: IgG Fc domain
T2 sequence (looked up): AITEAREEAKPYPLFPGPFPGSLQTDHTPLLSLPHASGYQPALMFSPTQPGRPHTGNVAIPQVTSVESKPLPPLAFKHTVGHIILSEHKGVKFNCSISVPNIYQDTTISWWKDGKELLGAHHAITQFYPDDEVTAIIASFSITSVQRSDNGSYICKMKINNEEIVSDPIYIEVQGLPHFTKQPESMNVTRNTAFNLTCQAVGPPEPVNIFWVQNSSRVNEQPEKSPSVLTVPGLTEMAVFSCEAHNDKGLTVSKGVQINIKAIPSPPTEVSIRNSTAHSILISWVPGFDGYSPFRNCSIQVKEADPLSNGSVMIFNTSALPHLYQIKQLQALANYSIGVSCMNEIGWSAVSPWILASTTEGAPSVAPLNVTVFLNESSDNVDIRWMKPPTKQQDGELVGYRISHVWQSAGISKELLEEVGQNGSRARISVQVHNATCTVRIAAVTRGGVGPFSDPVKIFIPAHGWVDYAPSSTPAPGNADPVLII
Description: With respect to avidity and affinity measurements using SPR, the protocols below were used.
The activator was prepared with a mixture of 400 mM EDC and 100 mM NHS immediately prior to injection. The CM5 sensor chip was activated for 420 s with the mixture. […] The chip was deactivated by 1 M ethanolamine-HCl. […] 8 concentrations (0.3125, 0.625, 1.25, 2.5, 5, 10, 20 and 40 nM) of the antibodies and running buffer were injected at a flow rate of 30 μL/min for an association phase of 240 s, followed by 4800 s dissociation. 10 mM glycine pH 1.5 as regeneration buffer was injected following every dissociation phase. The chip was regenerated with 10 mM glycine pH 1.5. One surface channel without capturing ligand was used as control surface for reference subtraction. Final data of each interaction was deducted from reference channel and buffer channel data. […] A molecular weight of 150 kDa was used to calculate the molar concentration of the antibodies.

[3] = target: T3, extracellular MERTK domain (W3725-hPro1, Sino Biological, 10298-HCCH) (human, UniProt Q12866 21-505); assay: SPR, affinity format: z10 captured by anti-human Fc on CM5 chip, extracellular MERTK domain as analyte, 1:1 fit; Affinity, SPR
T3 construct: extracellular domain; also called human extracellular MERTK
T3 sequence (looked up): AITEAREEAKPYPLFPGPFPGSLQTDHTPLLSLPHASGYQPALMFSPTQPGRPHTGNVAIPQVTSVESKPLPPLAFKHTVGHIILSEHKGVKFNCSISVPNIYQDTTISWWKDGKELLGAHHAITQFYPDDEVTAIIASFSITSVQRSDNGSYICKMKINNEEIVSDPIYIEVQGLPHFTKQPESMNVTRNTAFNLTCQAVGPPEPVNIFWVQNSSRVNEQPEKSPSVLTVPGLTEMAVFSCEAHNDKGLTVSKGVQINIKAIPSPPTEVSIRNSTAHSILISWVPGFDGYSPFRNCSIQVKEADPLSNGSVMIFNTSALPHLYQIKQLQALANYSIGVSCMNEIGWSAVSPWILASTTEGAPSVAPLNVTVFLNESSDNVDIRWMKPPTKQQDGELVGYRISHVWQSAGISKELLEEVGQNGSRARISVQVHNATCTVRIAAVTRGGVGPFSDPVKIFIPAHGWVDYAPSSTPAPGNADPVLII
Description: A CM5 sensor chip was activated for 420 s with a mixture of 400 mM EDC and 100 mM NHS. […] The chip was deactivated by 1 M ethanolamine-HCl. […] 10 mM glycine pH 1.5 as regeneration buffer was injected following every dissociation phase. The chip was regenerated with 10 mM glycine pH 1.5. One surface channel (without captured ligand) was used as control surface for reference subtraction. Final data of each interaction was deducted from reference channel and buffer channel data. […] A molecular weight of 54 kDa was used to calculate the molar concentration of the analyte.

- EC50 [1]: 6.7 nM
- Kd [2]: 0.00574 nM
- Kd [3]: 3 nM
B1: z10 antibody (antibody, human IgG1, kappa, V domains shown)
VH: QVQLVQSGAEVKKPGASVKVSCKASGYTFTNYGMNWVRQAPGQGLEWMGWINTYTGEPTYADDFKGRVTFTTDTSTSTAYMELRSLRSDDMAVYYCARKSTVVSRYFDVWGQGTTVTVSS
VL: DIQMTQSPSFLSASVGDRVTITCKASQDVGDAVTWYQQKPGKAPKLLIYWASTRHTGVPDRFSGSGSGTDFTLTISSLQPEDFATYYCQQYRSYPLTFGQGTKLEIKR
notes: also called MERTK (z10) antibody
